For data set [1], the system named is Nterm (position 1, -----WR----). The data set can be described thus: potentiometry. As to conditions: 25 °C; not stated (no added salt mentioned); none stated (unbuffered aqueous surfactant solution, N2 atmosphere, magnetic stirring); aggregated (micellar): post-micellar surfactant concentration, exact concentration not stated.
The subject of data set [2] is Nterm (position 1, -----FR----). Put plainly: potentiometry. Conditions: 25 °C; not stated (no added salt mentioned); none stated (unbuffered aqueous surfactant solution, N2 atmosphere, magnetic stirring); aggregated (micellar): post-micellar surfactant concentration, exact concentration not stated.

The values below come from article PMC9784262.

As to “TANHC14 (tryptophan-arginine tetradecylamide dihydrochloride) (synthetic)”, the pKa in data set [1] was determined as 7.0.

For “PANHC10 (phenylalanine-arginine decyl amide dihydrochloride) (synthetic)”, the pKa in data set [2] is recorded as 6.9.

In the case of “PANHC8 (phenylalanine-arginine octyl amide dihydrochloride) (synthetic)”, the pKa in data set [2] was 6.9.

As for “TANHC10 (tryptophan-arginine decyl amide dihydrochloride) (synthetic)”, in data set [1], the pKa stood at 7.2.

Consider “PANHC12 (phenylalanine-arginine dodecyl amide dihydrochloride) (synthetic)”, for which, in data set [2], the pKa came to 6.1.

Consider “PANHC14 (phenylalanine-arginine tetradecylamide dihydrochloride) (synthetic)”, for which, in data set [2], the pKa turned out to be 5.9.

Regarding “TANHC12 (tryptophan-arginine dodecyl amide dihydrochloride) (synthetic)”, the pKa in data set [1] came out at 7.8.

Usually pKa stands for the negative logarithm of the acid dissociation constant.
